The source of these data is publication PMC7641749 (Nucleic Acids Research, 2020).

Where “and” joins values, the source holds several entries; their conditions need not be identical. Equal values may be shown once.

The assay addresses human ERH (residues 1–104), His6-tagged (human, UniProt P84090 1-104). As to the kind of experiment: ITC. A general note: In ITC the heat of successive injections is recorded.

human ERH (residues 1–104), His6-tagged, sequence (P84090 whole entry, the tested form may be a part): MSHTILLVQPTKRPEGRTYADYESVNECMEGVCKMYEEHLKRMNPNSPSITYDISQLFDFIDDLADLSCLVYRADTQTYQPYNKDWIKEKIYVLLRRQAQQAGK

As usually defined, the Kd is the constant that tells how readily two partners part at equilibrium. The low end stands for higher affinity, the high end for lower affinity. The term stoichiometry N denotes a count of units in the complex or per binding partner. Consider PRTARHAPAVRKFSPDLKLLKDVKISVSFTE [His6-SUMO tagged DGCR8^96–126], for which the Kd is ~19.6 µM and ~19.7 µM; the “stoichiometry N” value came to 0.965.
